From paper PMC9916804

Tests used:
[1] = target: gametogenesis essential protein 1 (GEP1), truncation GEP1^192-905, Strep-tagged (Plasmodium yoelii); assay: pull-down; mutants of mEGFP-GCα^2301-3850 with Strep-tagged GEP1^192-905 on Strep-Tactin beads; GFP intensity of the eluates against WT; whether co-expressed or mixed is not stated
[2] = target: gametogenesis essential protein 1 (GEP1), truncation GEP1^192-905, Strep-tagged; assay: pull-down (Strep-Tactin beads), GFP intensity of elution; design: reference not given here; settings: co-expression of GEP1-192-905 and GCα-2301-3850; parent: est. 100; read off a plot

| Substance | GFP intensity of the pull-down eluate, percent of WT [1] | percent of parent [2] [%] |
| --- | --- | --- |
| GCα^2301-3850 (GCα-C) Q2755A, mEGFP-tagged (domain or fragment) | 49.2 % of WT | – |
| guanylate cyclase α C-terminal half, GCα^2301-3850, with N-terminal mEGFP D3598A | – | 110 |
| guanylate cyclase α C-terminal half, GCα^2301-3850, with N-terminal mEGFP D3642V | – | 100 |
| guanylate cyclase α C-terminal half, GCα^2301-3850, with N-terminal mEGFP E2794A | – | 80 |
| guanylate cyclase α C-terminal half, GCα^2301-3850, with N-terminal mEGFP N3724W | – | 110 |
| guanylate cyclase α C-terminal half, GCα^2301-3850, with N-terminal mEGFP S2910W | – | 74 |
